Results from patent US20180282402A1 (ATYR PHARMA, published 2018).

Tests used:
Mouse HARS = molecular target: T1, Mouse HARS (mouse, UniProt Q61035 1-509, limits assumed); assay: SPR (ProteOn); HRS protein immobilized, antibody as analyte
T1 construct: also called mouse HRS
T1 sequence: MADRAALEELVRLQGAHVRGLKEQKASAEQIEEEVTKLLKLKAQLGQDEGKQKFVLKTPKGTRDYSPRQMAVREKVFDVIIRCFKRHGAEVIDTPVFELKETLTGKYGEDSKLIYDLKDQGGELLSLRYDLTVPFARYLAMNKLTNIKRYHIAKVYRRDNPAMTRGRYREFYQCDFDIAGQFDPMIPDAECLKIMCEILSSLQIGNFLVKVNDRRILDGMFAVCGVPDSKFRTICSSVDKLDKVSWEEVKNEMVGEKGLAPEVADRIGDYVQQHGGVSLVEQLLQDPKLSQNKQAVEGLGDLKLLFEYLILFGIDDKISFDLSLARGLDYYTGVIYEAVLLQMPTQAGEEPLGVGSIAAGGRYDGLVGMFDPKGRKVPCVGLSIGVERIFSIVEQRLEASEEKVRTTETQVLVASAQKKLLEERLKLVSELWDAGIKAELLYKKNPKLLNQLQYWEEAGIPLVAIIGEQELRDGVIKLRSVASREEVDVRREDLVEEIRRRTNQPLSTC

Human HARS = molecular target: T2, Human HARS (human, UniProt P12081 1-509, limits assumed); assay: as above
T2 construct: also called human HRS; human histidyl-tRNA synthetase
T2 sequence: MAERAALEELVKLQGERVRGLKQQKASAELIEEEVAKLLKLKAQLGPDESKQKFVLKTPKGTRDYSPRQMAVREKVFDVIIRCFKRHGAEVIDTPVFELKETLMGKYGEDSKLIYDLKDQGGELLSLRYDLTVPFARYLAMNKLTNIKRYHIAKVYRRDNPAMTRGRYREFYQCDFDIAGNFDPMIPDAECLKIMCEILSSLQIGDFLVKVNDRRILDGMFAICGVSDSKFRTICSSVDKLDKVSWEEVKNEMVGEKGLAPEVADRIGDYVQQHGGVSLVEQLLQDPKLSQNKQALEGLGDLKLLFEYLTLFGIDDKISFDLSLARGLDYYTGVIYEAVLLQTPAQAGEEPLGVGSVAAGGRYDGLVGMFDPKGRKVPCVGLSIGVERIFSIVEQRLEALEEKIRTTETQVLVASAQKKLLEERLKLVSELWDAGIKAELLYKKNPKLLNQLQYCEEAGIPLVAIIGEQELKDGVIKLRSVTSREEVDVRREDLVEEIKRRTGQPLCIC

B1: AB04-425 (antibody, V domains shown)
VH: QVQLVESGGGLVKPGGSLRLSCAASGFTFSDYYMTWIRQAPGKGLEWVSYISGSFRYTNYADKVKGRFTISRDNAKNSLYLQMNSLRDEDTAVYFCARYVYQVVAIGDLWGQGTLVTVSS
VL: DIQMTQSPSSVSASVGDRVTITCRASQGISSWLAWYQQKPGRAPKLLIFAASSLQSGVPSRFSGSGSGTHFTLTISSLQPEDFATYYCQQAESFPYTFGQGTKLEIK
notes: Human; IgG1m(zf) kappa
B1 was tested, and the Kd (Mouse HARS) was 0.127 nM and the Kd (Human HARS) was 0.01 nM.

B2: AB04-168 (antibody, IgG4, V domains shown)
VH: QVQLVESGGGLVKPGGSLRLSCAASGFTFSDYYMTWIRQAPGKGLEWVSYISGSFRYTNYADKVKGRFTISRDNAKNSLYLQMNSLRDEDTAVYFCARYVYQVVAIGDLWGQGTLVTVSS
VL: DIQMTQSPSSVSASVGDRVTITCRASQGISSWLAWYQQKPGRAPKLLIFAASSLQSGVPSRFSGSGSGTHFTLTISSLQPEDFATYYCQQAESFPYTFGQGTKLEIK
notes: Human; IgG4-2 kappa
B2 showed a Kd (Mouse HARS) of 0.145 nM and a Kd (Human HARS) of 0.015 nM.

B3: AB04-439 (antibody, V domains shown)
VH: QVQLVESGGGLVKPGGSLRLSCAASGFTFSDYYMTWIRQAPGKGLEWVSYISGSFRYTNYADSVKGRFTISRDNAKNSLYLQMNSLRDEDTAVYFCARYVYQVVAIGDLWGQGTLVTVSS
VL: DIQMTQSPSSVSASVGDRVTITCRASQGISSWLAWYQQKPGRAPKLLIFAASSLQSGVPSRFSGSGSGTHFTLTISSLQPEDFATYYCQQAESFPYTFGQGTKLEIK
notes: Human; IgG1m(zf) kappa
For B3, the Kd (Mouse HARS) was 0.13 nM and the Kd (Human HARS) was 0.048 nM.

B4: AB13-112 (IgG1m(za) kappa) (antibody, V domains shown)
VH: QVQLVESGGGLVKPGGSLRLSCAASGFTFSDYYMSWIRQAPGKGLEWVSYISDKSRYTKYTDKVRGRFTISRDNAKNSLYLQMNSLRAEDTAVYYCARYLYQVIAIADAWGQGTLVTVSS
VL: DIQMTQSPSSVSASVGDRVTITCRASQGISSWLAWFQQKPGKAPKLLIFVASNLESGVPSRFSGSGSGTDFTLTISSLQPEDFATYYCQQAESFPYTFGQGTKLEIK
notes: Human
Work on B4 yielded a Kd (Mouse HARS) of less than 0.001 nM and a Kd (Human HARS) of less than 0.001 nM.

B5: KL31-241 (antibody, V domains shown)
VH: QVQLVQSGAEVKKPGASVKVSCKASGYTFTDYCIGWIRQAPGQGLEWMGDICPGDAYTNDNEKFKDRATMTADTSTSTAYMELSSLRSEDTAVYYCARGEEQLGLRNAMDYWGQGTSVTVSS
VL: DIVMTQSPDSLAVSLGERATINCQSQSVSTSTYNYMHWYQQKPGQPPKLLIKYASNLESGVPDRFSGSGSGTDFTLTISSLQAEDVATYYCQHSWEIPWTFGGGTKLEIK
notes: Humanized; IgG1m(zf) kappa
B5 gave a Kd (Mouse HARS) of 5.1 nM and a Kd (Human HARS) of 1.4 nM.

B6: KL31-240 (antibody, IgG4, V domains shown)
VH: QVQLVQSGAEVKKPGASVKVSCKASGYTFTDYCIGWIRQAPGQGLEWMGDICPGDTYTNDNEKFKDRATMTADTSTSTAYMELSSLRSEDTAVYYCARGEEQLGLRNAMDYWGQGTLVTVSS
VL: EIVLTQSPATLSLSPGERATLSCQSQSVSTSTYNYMHWYQQKPGQAPRLLIKYASNLESGIPDRFSGSGSGTDFTLTISRLEPEDFATYYCGHSYEIPWTFGGGTKVEIK
notes: Humanized; IgG4 kappa
Binder B6 has a Kd (Mouse HARS) of 0.942 nM and a Kd (Human HARS) of 0.104 nM.

B7: KL31-513 (antibody, IgG4, V domains shown)
VH: QVQLVQSGAEVKKPGASVKVSCKASGYTFTDYCIGWIRQAPGQGLEWMGDICPGDTYTNDNEKFKDRATMTADTSTSTAYMELSSLRSEDTAVYYCARGEEQLGLRNAMDYWGQGTLVTVSS
VL: EIVLTQSPATLSLSPGERATLSCQSQSVSTSTYNYMHWYQQKPGQAPRLLIKYASNLESGIPDRFSGSGSGTDFTLTISRLEPEDFATYYCGHSYEIPWTFGGGTKVEIK
notes: Humanized; IgG4-2 kappa
B7 gave a Kd (Mouse HARS) of 1.25 nM and a Kd (Human HARS) of 0.116 nM.

B8: KL31-532 (antibody, V domains shown)
VH: QVQLVQSGAEVKKPGASVKVSCKASGYTFTDYCIGWIRQAPGQGLEWMGDICPGDTYTNDNEKFKDRATMTADTSTSTAYMELSSLRSEDTAVYYCARGEEQLGLRNAMDYWGQGTLVTVSS
VL: DIVMTQSPDSLAVSLGERATINCQSQSVSTSTYNYMHWYQQKPGQPPKLLIKYASNLESGVPDRFSGSGSGTDFTLTISSLQAEDVATYYCGHSYEIPWTFGGGTKVEIK
notes: Humanized; IgG1m(zf) kappa
With B8 the Kd (Mouse HARS) was 0.37 nM and the Kd (Human HARS) was 0.064 nM.
